Abundance fitness data for 37 variants are collected here from the Human Domainome abundance scans (Beltran et al. 2025).

± gives the uncertainty stated by the source.

B1: POU domain, class 4, transcription factor 2, residues 256 to 327; numbered along this chain, Q12837 (parent)
chain: RDLEAFAERFKQRRIKLGVTQADVGSALANLKIPGVGSLSQSTICRFESLTLSHNNMIALKPILQAWLEEAE

Variants of B1 are the subject of this series. Put plainly: abundance fitness (aPCA) (normalised: wild type 0, dead -1); higher = more abundant; growth selection in yeast, the domain comes from the species named. The note with it: Homo sapiens.
For RDLEAFAERFKQRRIKLGVTQADVGSALANLKIPGVGSLSQSTICRFESLTLSENNMIALKPILQAWLEEAE [H54E], the abundance fitness was -0.3 ± 0.34.
On to RDLEAFAERFKQRRIKLGVTQADVGSALANLKIPGVGSLSQSTICRFESLTLSPNNMIALKPILQAWLEEAE [H54P], for which the abundance fitness is -0.079 ± 0.051.
Take RDLEAFAERFKQRRIKLGVTQADVGSALANLKIPGVGSLSQSTICRFESLTLSQNNMIALKPILQAWLEEAE [H54Q]: the abundance fitness was determined as 0.034 ± 0.06.
For RDLEAFAERFKQRRIKLGVTQADVGSALANLKIPGVGSLSQSTICRFESLTLSMNNMIALKPILQAWLEEAE [H54M], the abundance fitness worked out at 0.005 ± 0.18.
As to RDLEAFAERFKQRRIKLGVTQADVGSALANLKIPGVGSLSQSTICRFESLTLSSNNMIALKPILQAWLEEAE [H54S], the abundance fitness was -0.145 ± 0.068.
With RDLEAFAERFKQRRIKLGVTQADVGSALANLKIPGVGSLSQSTICRFESLTLSANNMIALKPILQAWLEEAE [H54A] the figure was -0.005 ± 0.065; with RDLEAFAERFKQRRIKLGVTQADVGSALANLKIPGVGSLSQSTICRFESLTLSNNNMIALKPILQAWLEEAE [H54N], -0.138 ± 0.1.
Under RDLEAFAERFKQRRIKLGVTQADVGSALANLKIPGVGSLSQSTICRFESLTLSDNNMIALKPILQAWLEEAE [H54D] stands -0.183 ± 0.21; under RDLEAFAERFKQRRIKLGVTQADVGSALANLKIPGVGSLSQSTICRFESLTLSTNNMIALKPILQAWLEEAE [H54T], 0.06 ± 0.087; under RDLEAFAERFKQRRIKLGVTQADVGSALANLKIPGVGSLSQSTICRFESLTLSLNNMIALKPILQAWLEEAE [H54L], -0.042 ± 0.049.
Under RDLEAFAERFKQRRIKLGVTQADVGSALANLKIPGVGSLSQSTICRFESLTLSRNNMIALKPILQAWLEEAE [H54R] stands 0.081 ± 0.047.
Regarding RDLEAFAERFKQRRIKLGVTQADVGSALANLKIPGVGSLSQSTICRFESLTLSWNNMIALKPILQAWLEEAE [H54W], the abundance fitness is -0.119 ± 0.088.
With RDLEAFAERFKQRRIKLGVTQADVGSALANLKIPGVGSLSQSTICRFESLTLSGNNMIALKPILQAWLEEAE [H54G] the figure was -0.314 ± 0.064; with RDLEAFAERFKQRRIKLGVTQADVGSALANLKIPGVGSLSQSTICRFESLTLSINNMIALKPILQAWLEEAE [H54I], -0.047 ± 0.18; with RDLEAFAERFKQRRIKLGVTQADVGSALANLKIPGVGSLSQSTICRFESLTLSFNNMIALKPILQAWLEEAE [H54F], -0.086 ± 0.11.
As to RDLEAFAERFKQRRIKLGVTQADVGSALANLKIPGVGSLSQSTICRFESLTLHHNNMIALKPILQAWLEEAE [S53H], the abundance fitness is -0.376 ± 0.15.
Under RDLEAFAERFKQRRIKLGVTQADVGSALANLKIPGVGSLSQSTICRFESLTLCHNNMIALKPILQAWLEEAE [S53C] stands -0.514 ± 0.18; under RDLEAFAERFKQRRIKLGVTQADVGSALANLKIPGVGSLSQSTICRFESLTLAHNNMIALKPILQAWLEEAE [S53A], -0.163 ± 0.046.
Under RDLEAFAERFKQRRIKLGVTQADVGSALANLKIPGVGSLSQSTICRFESLTLLHNNMIALKPILQAWLEEAE [S53L] stands -0.729 ± 0.1; under RDLEAFAERFKQRRIKLGVTQADVGSALANLKIPGVGSLSQSTICRFESLTLFHNNMIALKPILQAWLEEAE [S53F], -0.882 ± 0.2; under RDLEAFAERFKQRRIKLGVTQADVGSALANLKIPGVGSLSQSTICRFESLTLYHNNMIALKPILQAWLEEAE [S53Y], -0.556 ± 0.18.
With RDLEAFAERFKQRRIKLGVTQADVGSALANLKIPGVGSLSQSTICRFESLTLEHNNMIALKPILQAWLEEAE [S53E] the figure was -0.066 ± 0.12; with RDLEAFAERFKQRRIKLGVTQADVGSALANLKIPGVGSLSQSTICRFESLTLGHNNMIALKPILQAWLEEAE [S53G], -0.102 ± 0.059; with RDLEAFAERFKQRRIKLGVTQADVGSALANLKIPGVGSLSQSTICRFESLTLKHNNMIALKPILQAWLEEAE [S53K], -0.738 ± 0.35.
RDLEAFAERFKQRRIKLGVTQADVGSALANLKIPGVGSLSQSTICRFESLTLDHNNMIALKPILQAWLEEAE [S53D]: the abundance fitness came out at 0.043 ± 0.1.
With RDLEAFAERFKQRRIKLGVTQADVGSALANLKIPGVGSLSQSTICRFESLTLVHNNMIALKPILQAWLEEAE [S53V], the abundance fitness was -0.492 ± 0.11.
With RDLEAFAERFKQRRIKLGVTQADVGSALANLKIPGVGSLSQSTICRFESLTLMHNNMIALKPILQAWLEEAE [S53M] the figure was -0.371 ± 0.23; with RDLEAFAERFKQRRIKLGVTQADVGSALANLKIPGVGSLSQSTICRFESLTLNHNNMIALKPILQAWLEEAE [S53N], -0.605 ± 0.29; with RDLEAFAERFKQRRIKLGVTQADVGSALANLKIPGVGSLSQSTICRFESLTASHNNMIALKPILQAWLEEAE [L52A], -0.822 ± 0.14.
With RDLEAFAERFKQRRIKLGVTQADVGSALANLKIPGVGSLSQSTICRFESLTSSHNNMIALKPILQAWLEEAE [L52S] the figure was -0.849 ± 0.13; with RDLEAFAERFKQRRIKLGVTQADVGSALANLKIPGVGSLSQSTICRFESLTHSHNNMIALKPILQAWLEEAE [L52H], -0.729 ± 0.28.
As for RDLEAFAERFKQRRIKLGVTQADVGSALANLKIPGVGSLSQSTICRFESLTQSHNNMIALKPILQAWLEEAE [L52Q], the abundance fitness is -1.08 ± 0.32.
Under RDLEAFAERFKQRRIKLGVTQADVGSALANLKIPGVGSLSQSTICRFESLTRSHNNMIALKPILQAWLEEAE [L52R] stands -0.883 ± 0.12.
Under RDLEAFAERFKQRRIKLGVTQADVGSALANLKIPGVGSLSQSTICRFESLTTSHNNMIALKPILQAWLEEAE [L52T] stands -0.683 ± 0.15; under RDLEAFAERFKQRRIKLGVTQADVGSALANLKIPGVGSLSQSTICRFESLTFSHNNMIALKPILQAWLEEAE [L52F], -0.682 ± 0.21; under RDLEAFAERFKQRRIKLGVTQADVGSALANLKIPGVGSLSQSTICRFESLTNSHNNMIALKPILQAWLEEAE [L52N], -0.997 ± 0.18.
For RDLEAFAERFKQRRIKLGVTQADVGSALANLKIPGVGSLSQSTICRFESLTWSHNNMIALKPILQAWLEEAE [L52W], the abundance fitness is -0.952 ± 0.22.
